Non-standard residues stand in square brackets, D forms with d. Groups on a side chain read outwards from the residue. Primed or numbered codes have the meaning given here. No end group written: not given here. *: point of attachment. Stearoyl = CCCCCCCCCCCCCCCCCC(=O)*; αMeF = C[C@](N)(Cc1ccccc1)C(=O)O; Lauroyl = CCCCCCCCCCCC(=O)*; dIva = CC[C@@](C)(N)C(=O)O; Iva = CC[C@](C)(N)C(=O)O; PEG2′ = not defined here; Aib = CC(C)(N)C(=O)O
Target: T1, human GLP-1R (human), P43220
T1 chain: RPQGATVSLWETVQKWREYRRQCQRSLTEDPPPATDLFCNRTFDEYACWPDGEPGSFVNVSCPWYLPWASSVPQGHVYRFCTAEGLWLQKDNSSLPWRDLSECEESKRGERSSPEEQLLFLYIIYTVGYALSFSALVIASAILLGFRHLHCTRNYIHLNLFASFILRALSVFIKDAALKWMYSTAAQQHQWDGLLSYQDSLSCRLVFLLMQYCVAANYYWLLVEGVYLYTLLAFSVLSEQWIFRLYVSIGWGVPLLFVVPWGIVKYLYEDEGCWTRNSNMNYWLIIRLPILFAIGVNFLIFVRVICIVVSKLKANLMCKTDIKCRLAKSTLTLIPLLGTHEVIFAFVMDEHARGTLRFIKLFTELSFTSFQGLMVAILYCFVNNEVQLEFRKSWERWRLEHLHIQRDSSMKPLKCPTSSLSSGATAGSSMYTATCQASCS
Assay: not given

Point of comparison: Y[Aib]EGTFISDYSK([PEG(2)-Lauroyl])ALDRIAQQD[αMeF]VNWLLAQRPSSGAPPPSR (ends and bridges not checked) [Compound 195], Agonist activity (EC50, M) 1e-07 M. Against it:
- Y[Aib]EGTFISDYSK([PEG(2)-Pal])ALDRIHQQDFVNWLLAQRPSSGAPPPSR (ends and bridges not checked) [Compound 177] — higher, > 1e-06 M
- Y[Aib]EGTFISDYSK([PEG(2)-Lauroyl])[dIva]LDRIAQQDFVNWLLAQRPSSGAPPPSR (ends and bridges not checked) [Compound 199] — higher, > 1e-06 M
- Me-Y[Aib]EGTFISDYSIALDRIAQ[Aib]SFVNWLLAQRPSSGAPPPSR (not fully specified (residue 1, C-terminus); ends and bridges not checked) [Compound 136] — 2.1-fold higher, 2.1e-07 M
- Y[Aib]EGTFISDYSK([PEG(2)-Lauroyl])ALDRIAQ[Aib]NFVNWLLAQRPSSGAPPPSR (ends and bridges not checked) [Compound 197] — 9.1-fold lower, 1.1e-08 M
- Y[Aib]EGTFISDYSK([PEG2′-Lauroyl])ALDRIHQQDFVNWLLAQRPSSGAPPPSR (ends and bridges not checked) [Compound 180] — higher, > 1e-06 M
- Ac-Y[Aib]EGTFISDYSI[dIva]LDRIAQ[Aib]NFVNW[Iva]LAQRPSSGAPPPSR (ends and bridges not checked) [Compound 152] — higher, > 1e-06 M
- Y[Aib]EGTFISDYSK([PEG(2)-Lauroyl])ALDRIAQQDFVN[αMeF]LLAQRPSSGAPPPSR (ends and bridges not checked) [Compound 194] — 4-fold lower, 2.5e-08 M
- Y[Aib]EGTFISDYSK([PEG2′-Stearoyl])ALDRIHQQDFVNWLLAQRPSSGAPPPSR (ends and bridges not checked) [Compound 181] — higher, > 1e-06 M
- Y[Aib]EGTFISDYSK([PEG(2)-Ac])ALDRIHQQDFVNWLLAQRPSSGAPPPS (ends and bridges not checked) [Compound 173] — higher, > 1e-06 M
- Y[Aib]EGTVVSLYSK([PEG(2)-Pal])[Aib]LDKQAQ[Aib]EFVKWLLAQK (ends and bridges not checked) [Compound 158] — higher, > 1e-06 M

Target: T2, human GIPR (human), P48546
T2 chain: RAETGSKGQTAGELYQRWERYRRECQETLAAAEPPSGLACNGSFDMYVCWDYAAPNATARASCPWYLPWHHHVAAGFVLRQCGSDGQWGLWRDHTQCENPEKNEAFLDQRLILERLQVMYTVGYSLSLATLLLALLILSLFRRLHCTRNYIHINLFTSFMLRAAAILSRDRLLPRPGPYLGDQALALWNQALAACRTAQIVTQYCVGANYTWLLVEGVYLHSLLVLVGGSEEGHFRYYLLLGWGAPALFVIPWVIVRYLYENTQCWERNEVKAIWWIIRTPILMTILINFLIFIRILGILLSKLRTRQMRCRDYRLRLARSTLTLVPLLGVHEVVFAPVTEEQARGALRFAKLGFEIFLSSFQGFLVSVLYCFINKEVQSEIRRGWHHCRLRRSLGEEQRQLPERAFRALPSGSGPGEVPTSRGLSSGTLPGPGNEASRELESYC
Assay: not given

Point of comparison: Y[Aib]EGTFISDYSK([PEG(2)-Lauroyl])ALDRIAQ[Aib]NFVNWLLAQRPSSGAPPPSR (ends and bridges not checked) [Compound 197], Agonist activity (EC50, M) 5.6e-12 M. Against it:
- Y[Aib]EGTFISDYSK([PEG(2)-Pal])ALDRIHQQDFVNWLLAQRPSSGAPPPSR (ends and bridges not checked) [Compound 177] — within 1.5-fold, 7.2e-12 M
- Y[Aib]EGTFISDYSK([PEG(2)-Lauroyl])[dIva]LDRIAQQDFVNWLLAQRPSSGAPPPSR (ends and bridges not checked) [Compound 199] — 6.1-fold higher, 3.4e-11 M
- Me-Y[Aib]EGTFISDYSIALDRIAQ[Aib]SFVNWLLAQRPSSGAPPPSR (not fully specified (residue 1, C-terminus); ends and bridges not checked) [Compound 136] — 2.5-fold lower, 2.2e-12 M
- Y[Aib]EGTFISDYSK([PEG(2)-Lauroyl])ALDRIAQQD[αMeF]VNWLLAQRPSSGAPPPSR (ends and bridges not checked) [Compound 195] — within 1.5-fold, 4.8e-12 M
- Y[Aib]EGTFISDYSK([PEG2′-Lauroyl])ALDRIHQQDFVNWLLAQRPSSGAPPPSR (ends and bridges not checked) [Compound 180] — 2.9-fold lower, 1.9e-12 M
- Ac-Y[Aib]EGTFISDYSI[dIva]LDRIAQ[Aib]NFVNW[Iva]LAQRPSSGAPPPSR (ends and bridges not checked) [Compound 152] — 2-fold lower, 2.8e-12 M
- Y[Aib]EGTFISDYSK([PEG(2)-Lauroyl])ALDRIAQQDFVN[αMeF]LLAQRPSSGAPPPSR (ends and bridges not checked) [Compound 194] — 1.6-fold lower, 3.5e-12 M
- Y[Aib]EGTFISDYSK([PEG2′-Stearoyl])ALDRIHQQDFVNWLLAQRPSSGAPPPSR (ends and bridges not checked) [Compound 181] — 1.6-fold higher, 9.2e-12 M
- Y[Aib]EGTFISDYSK([PEG(2)-Ac])ALDRIHQQDFVNWLLAQRPSSGAPPPS (ends and bridges not checked) [Compound 173] — within 1.5-fold, 4.4e-12 M
- Y[Aib]EGTVVSLYSK([PEG(2)-Pal])[Aib]LDKQAQ[Aib]EFVKWLLAQK (ends and bridges not checked) [Compound 158] — 18-fold higher, 9.9e-11 M

Target: T2, human GIPR (human), P48546
Assay: [125I]GIP displacement, hGIPR VLP

Point of comparison: Y[Aib]EGTFISDYSK([PEG(2)-Ac])ALDRIHQQDFVNWLLAQRPSSGAPPPS (ends and bridges not checked) [Compound 173], IC50 7.1 nM. Against it:
- Y[Aib]EGTFISDYSK([PEG(2)-Pal])ALDRIHQQDFVNWLLAQRPSSGAPPPSR (ends and bridges not checked) [Compound 177] — 3-fold lower, 2.4 nM
- Y[Aib]EGTFISDYSK([PEG(2)-Lauroyl])[dIva]LDRIAQQDFVNWLLAQRPSSGAPPPSR (ends and bridges not checked) [Compound 199] — 3-fold lower, 2.4 nM
- Me-Y[Aib]EGTFISDYSIALDRIAQ[Aib]SFVNWLLAQRPSSGAPPPSR (not fully specified (residue 1, C-terminus); ends and bridges not checked) [Compound 136] — 3.4-fold lower, 2.1 nM
- Y[Aib]EGTFISDYSK([PEG(2)-Lauroyl])ALDRIAQQD[αMeF]VNWLLAQRPSSGAPPPSR (ends and bridges not checked) [Compound 195] — 3.1-fold lower, 2.3 nM
- Y[Aib]EGTFISDYSK([PEG(2)-Lauroyl])ALDRIAQ[Aib]NFVNWLLAQRPSSGAPPPSR (ends and bridges not checked) [Compound 197] — 2.7-fold lower, 2.6 nM
- Y[Aib]EGTFISDYSK([PEG2′-Lauroyl])ALDRIHQQDFVNWLLAQRPSSGAPPPSR (ends and bridges not checked) [Compound 180] — 5.9-fold lower, 1.2 nM
- Ac-Y[Aib]EGTFISDYSI[dIva]LDRIAQ[Aib]NFVNW[Iva]LAQRPSSGAPPPSR (ends and bridges not checked) [Compound 152] — 3.4-fold lower, 2.1 nM
- Y[Aib]EGTFISDYSK([PEG(2)-Lauroyl])ALDRIAQQDFVN[αMeF]LLAQRPSSGAPPPSR (ends and bridges not checked) [Compound 194] — 3.1-fold lower, 2.3 nM
- Y[Aib]EGTFISDYSK([PEG2′-Stearoyl])ALDRIHQQDFVNWLLAQRPSSGAPPPSR (ends and bridges not checked) [Compound 181] — 2.7-fold lower, 2.6 nM
- Y[Aib]EGTVVSLYSK([PEG(2)-Pal])[Aib]LDKQAQ[Aib]EFVKWLLAQK (ends and bridges not checked) [Compound 158] — 2.1-fold lower, 3.4 nM
